Molecular target: Galanin receptor of rat ileum (rat)
Experiment: cell-based or functional assay

## Galanin (peptide)
  Agonism (contraction of rat ileum), galanin 0.1 µM: 100%
  Agonism, average of two preparations, galanin 0.1 µM: 100%

Source: patent publication US6767890
